The labels stand for the following.
T1: Nop15 (Saccharomyces cerevisiae, UniProt P53927 1-220)
T1 sequence: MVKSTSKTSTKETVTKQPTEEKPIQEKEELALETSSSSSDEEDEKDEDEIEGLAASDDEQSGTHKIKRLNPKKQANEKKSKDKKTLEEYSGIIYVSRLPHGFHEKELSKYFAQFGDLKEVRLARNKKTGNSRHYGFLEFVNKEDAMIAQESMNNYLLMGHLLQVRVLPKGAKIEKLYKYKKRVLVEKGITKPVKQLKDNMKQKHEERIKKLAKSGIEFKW

T2: Nop15 81-180 (Saccharomyces cerevisiae, UniProt P53927 81-180)
T2 sequence: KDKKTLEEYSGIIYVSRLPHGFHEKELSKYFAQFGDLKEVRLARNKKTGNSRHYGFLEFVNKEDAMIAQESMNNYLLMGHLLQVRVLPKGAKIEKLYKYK

T3: Nop15 81-220 (Saccharomyces cerevisiae, UniProt P53927 81-220)
T3 sequence: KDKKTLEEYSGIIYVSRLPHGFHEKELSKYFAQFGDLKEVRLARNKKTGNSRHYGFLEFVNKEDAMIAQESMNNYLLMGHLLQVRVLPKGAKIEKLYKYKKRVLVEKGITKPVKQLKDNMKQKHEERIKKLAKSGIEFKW

T4: Nop15 81-191 (Saccharomyces cerevisiae, UniProt P53927 81-191)
T4 sequence: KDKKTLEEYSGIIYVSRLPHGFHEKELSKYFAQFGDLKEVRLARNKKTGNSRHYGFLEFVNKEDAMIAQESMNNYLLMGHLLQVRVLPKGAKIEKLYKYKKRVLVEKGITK

B1: ITS2 26-60 WT (structured_RNA)
RNA: UGAGUGAUACUCUUUGGAGUUAACUUGAAAUUGCU
B2: ITS2 26-60 lower1 (structured_RNA)
RNA: B1 RNA with G4C, U5A, A23U, C24G
B3: ITS2 26-60 lower2 (structured_RNA)
RNA: B1 RNA with G2U, A3U, U25A, U26G
B4: ITS2 26-60 disrupted upper (structured_RNA)
RNA: B1 RNA with A9C, C10A
B5: ITS2 26-60 disrupted lower (structured_RNA)
RNA: B1 RNA with G2C, A3U
B6: ITS2 26-60 bulge (structured_RNA)
RNA: UGAGUCUAACUCUUUGGAGUAUACUUGAAAUUGCU
B7: ITS2 26-60 paired (structured_RNA)
RNA: UGAGUGAUACUCUUUGGAGUAUCACUUGAAAUUGCU
B8: ITS2 26-60 upper (structured_RNA)
RNA: UGAGUGAUCAACUUUGGUUGUAACUUGAAAUUGCU
B9: ITS2 26-51 (structured_RNA)
RNA: UGAGUGAUACUCUUUGGAGUUAACUU

Changes are numbered by the printed parent chain.

One may read the Kd as a measure of binding affinity in units of concentration. Lower therefore signals higher affinity.

The first series concerns the target T1, Nop15. In words: fluorescence polarization; 150 mM NaCl; 50 mM HEPES pH 7.5, 150 mM NaCl (250 mM in one row), room temperature, 40 min, 9 nM RNA. For orientation: In fluorescence polarisation assays a small probe gives low polarisation when free and higher when bound to something large.
The molecule B1 yielded a Kd of 293 ± 23 nM.

For the next series, the target named is T2, Nop15 81-180. The description is as above.
For the molecule B1, the Kd is 1050 ± 111 nM.

A further series concerns the target T3, Nop15 81-220. The description is as above.
In turn, B1 came in with a Kd of 35.4 ± 1.3 nM.

Regarding B2, the Kd came out at 52.1 ± 3.6 nM.

Molecule B3 gave a Kd of 39.3 ± 2.7 nM.

On to B4, for which the Kd came out at 35.5 ± 3.2 nM.

As to B5, the affinity, expressed as Kd, was 144 ± 16 nM. This Kd lies about 4.1-fold higher than the previous one.

For the molecule B6, the Kd worked out at 73.6 ± 5.6 nM. Compared with the last molecule, the Kd is about 2-fold lower.

B7 had a Kd of 89 ± 8.9 nM.

B8 returned a Kd of 44.9 ± 4.3 nM.

B9 returned a Kd of 104 ± 3.6 nM.

Another series addresses T4, Nop15 81-191. The series is described as above.
B1: the Kd came out at 209 ± 15 nM.

The values above are taken from paper PMC5389651.
